{"source": "paper PMC12328718", "key": {"[1]": {"biological_target": "T1, SHMT2 WT (UniProt P34897)", "T1 sequence": "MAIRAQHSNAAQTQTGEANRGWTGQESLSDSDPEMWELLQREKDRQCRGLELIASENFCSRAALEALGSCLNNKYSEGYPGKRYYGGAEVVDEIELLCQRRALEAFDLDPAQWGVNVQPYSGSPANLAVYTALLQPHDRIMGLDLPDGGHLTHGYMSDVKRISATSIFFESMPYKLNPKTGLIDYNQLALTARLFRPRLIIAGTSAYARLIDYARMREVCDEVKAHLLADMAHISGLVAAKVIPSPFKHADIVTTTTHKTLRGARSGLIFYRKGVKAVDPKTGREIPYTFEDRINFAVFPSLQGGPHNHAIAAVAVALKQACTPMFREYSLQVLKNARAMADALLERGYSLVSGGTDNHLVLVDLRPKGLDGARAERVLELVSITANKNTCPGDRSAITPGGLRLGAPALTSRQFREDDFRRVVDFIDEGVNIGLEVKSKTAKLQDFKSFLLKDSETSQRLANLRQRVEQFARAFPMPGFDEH", "test": "EMSA", "conditions": "EMSA: 20 mM HEPES pH 7.4, 150 mM NaCl, 20 ug/ml BSA, 0.1 ug tRNA, RNase inhibitor, 8% glycerol, 25 C, 30 min; 4% native PAGE in 0.5x TBE"}, "[2]": {"biological_target": "SHMT2 K281S-R284S", "test": "SEC; Superdex 200 column (16/600), last step of the purification; 20 mM Hepes pH 7.2, 250 mM NaCl, 10% glycerol"}, "[3]": {"biological_target": "Serine hydroxymethyltransferase 2 (SHMT2) wild type", "test": "SEC; Superdex 200 column (16/600), last step of the purification; 20 mM Hepes pH 7.2, 250 mM NaCl, 10% glycerol"}}, "data": [{"substance": "GGGAUAAAGAAAAAAGCGGUGAGUGGGCGAACUACAAUUCCCAAAAGGCCACAAAGGGGCCACCACUACGCAUGCGUAGAUCCCUCCCGUUAGCUUUGGCGCCUCAGCGAGCUCUUCUCGCGCAUGCGUUCUCCGAACGGUCUUCUUCCGACAGCUUGCUGCCCUAGACCAGAGUUGGUGGCUGGACCUCCUGCGACUUCCGAGUUGCG [UTR2 RNA]", "values": [{"measurement": "Kd", "setting": "[1]", "value": 560, "unit": "nM"}]}, {"substance": "SHMT2 K281S-R284S (enzyme)", "values": [{"measurement": "stoichiometry N", "setting": "[2]", "value": 4}]}, {"substance": "Serine hydroxymethyltransferase 2 (SHMT2) wild type (enzyme)", "values": [{"measurement": "stoichiometry N", "setting": "[3]", "value": 4}]}]}
